The source of these data is the supplement of paper PMC6757056.

First the molecules themselves.
B1: library; a variant is named by its letters at N, in order (parent)
chain: GCUGUCACCGAGAAACUGUGAAGUAUAUCUUAAACCUGGGCACUUAAAAGAUAUAUGGAGUUAGUAGUGCAACCUGCUCGGUCUGAUGAGUCCNNNNNNGGACGAAACAGC

Variants of B1 are the subject of data set [1]. In words: normalized RNA/DNA level without ligand (relative to sTRSVctl = 100) (log10 (% of sTRSVctl)); HEK293T; ligand: cyclic di-GMP (c-di-GMP-II aptamer); higher = less ribozyme self-cleavage, higher mRNA level. To be noted: reporter: mCherry (pCS4076), ligand present: no. The procedure, abridged: (§1)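 Ribozyme switch library plasmids linked to reporters were introduced into HEK293T cells at 4 µg per 6-well well, with ligand, if any, added 1 h before. Total RNA was extracted with EDTA 72 h later, reverse-transcribed, amplified, barcoded and sequenced. RNA level was computed from RNA over DNA reads relative to a spiked-in non-cleaving sequence or the top sequences, then scaled and log-transformed. The top set was 25 sequences, values were ×100 and log10, and the cutoff was ≥100 DNA reads.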

Variants of B1 are the subject of data set [2]. The data set can be described thus: normalized RNA/DNA level with ligand (relative to sTRSVctl = 100) (log10 (% of sTRSVctl)); HEK293T; ligand: cyclic di-GMP (c-di-GMP-II aptamer); ligand concentration (+) RNA-Seq: 1 mM; higher = less ribozyme self-cleavage, higher mRNA level. The note with it: reporter: mCherry (pCS4076), ligand present: yes. The procedure, abridged:
as §1

± gives the standard deviation of the averaged measurements.

On to CCGUGU, for which the “normalized RNA/DNA level without ligand (log10)” value in data set [1] amounted to 1.66 ± 0.039. In data set [2], the “normalized RNA/DNA level with ligand (log10)” value is 1.86 ± 0.095.
For CCGUGG, in that order: 1.53 ± 0.061 and 1.69 ± 0.14.
For CCGUGC, in that order: 1.58 ± 0.036 and 1.76 ± 0.086.
For CCGUGA, in that order: 1.51 ± 0.067 and 1.7 ± 0.078.
As for UCUCGA, the “normalized RNA/DNA level without ligand (log10)” value in data set [1] is 1.8 ± 0.036. Further, in data set [2], the “normalized RNA/DNA level with ligand (log10)” value was determined as 1.86 ± 0.15.
For the variant UCUCGU, the “normalized RNA/DNA level without ligand (log10)” value in data set [1] turned out to be 1.69 ± 0.037. In addition, the “normalized RNA/DNA level with ligand (log10)” value in data set [2] came out at 1.85 ± 0.075.
For UCUCGC, in that order: 1.808 ± 0.017 and 1.88 ± 0.098.
For the variant UCUCGG, in data set [1], the “normalized RNA/DNA level without ligand (log10)” value amounted to 1.9 ± 0.063. The “normalized RNA/DNA level with ligand (log10)” value in data set [2] was 1.96 ± 0.13.
For CCGGAG, in that order: 1.31 ± 0.13 and 1.52 ± 0.14.
On to GCUGAG, for which the “normalized RNA/DNA level without ligand (log10)” value in data set [1] was 1.5 ± 0.079. Moreover, the “normalized RNA/DNA level with ligand (log10)” value in data set [2] worked out at 1.67 ± 0.069.
For GCUGAU, in that order: 1.55 ± 0.061 and 1.72 ± 0.087.
On to GCUGAC, for which, in data set [1], the “normalized RNA/DNA level without ligand (log10)” value amounted to 1.47 ± 0.069. The “normalized RNA/DNA level with ligand (log10)” value in data set [2] was found to be 1.67 ± 0.1.
For CCUGUC, in that order: 1.69 ± 0.019 and 1.87 ± 0.089.
For UCGGGC, in that order: 1.83 ± 0.035 and 1.94 ± 0.086.
For UCGGGA, in that order: 1.46 ± 0.035 and 1.72 ± 0.11.
For the variant UCGGGG, the “normalized RNA/DNA level without ligand (log10)” value in data set [1] stood at 1.69 ± 0.06. Further, the “normalized RNA/DNA level with ligand (log10)” value in data set [2] was 1.83 ± 0.11.
For UCGGGU, in that order: 1.64 ± 0.09 and 1.79 ± 0.13.
On to GCGGUA, for which, in data set [1], the “normalized RNA/DNA level without ligand (log10)” value was 1.55 ± 0.046. Besides, the “normalized RNA/DNA level with ligand (log10)” value in data set [2] turned out to be 1.69 ± 0.09.
As to GCGGUC, the “normalized RNA/DNA level without ligand (log10)” value in data set [1] turned out to be 1.29 ± 0.072. Besides, the “normalized RNA/DNA level with ligand (log10)” value in data set [2] came to 1.52 ± 0.09.
Regarding GCGGUG, in data set [1], the “normalized RNA/DNA level without ligand (log10)” value worked out at 1.6984 ± 0.00046. In data set [2], the “normalized RNA/DNA level with ligand (log10)” value turned out to be 1.79 ± 0.13.
Turning to CCUCGC, the “normalized RNA/DNA level without ligand (log10)” value in data set [1] amounted to 1.745 ± 0.0039. In addition, in data set [2], the “normalized RNA/DNA level with ligand (log10)” value was 1.82 ± 0.14.
For CCUCGU, in that order: 1.75 ± 0.057 and 1.86 ± 0.084.
For CCUCGG, in that order: 1.838 ± 0.011 and 1.94 ± 0.025.
For CCUCGA, in that order: 1.71 ± 0.058 and 1.84 ± 0.093.
Take GCGUCU: in data set [1], the “normalized RNA/DNA level without ligand (log10)” value came out at 1.67 ± 0.03. In addition, the “normalized RNA/DNA level with ligand (log10)” value in data set [2] is 1.83 ± 0.1.
For GCGUCA, in that order: 1.624 ± 0.0059 and 1.79 ± 0.15.
For GCGUCC, in that order: 1.63 ± 0.055 and 1.81 ± 0.047.
As to GCGGGU, in data set [1], the “normalized RNA/DNA level without ligand (log10)” value stood at 1.769 ± 0.0058. The “normalized RNA/DNA level with ligand (log10)” value in data set [2] was 1.87 ± 0.12.
For GCGGGA, in that order: 1.62 ± 0.078 and 1.72 ± 0.068.
